The record followed here is patent US20210388081A1 (Memorial Sloan Kettering, published 2021).

To fix the notation:
B1: ET200-038 (scFv)
scFv: QSVLTQPPSVSGAPGQRVTISCTGSSSNIGAGFDVHWYQLLPGTAPKLLIYANSNRPSGVPDRFSGSKSGTSASLAITGLLAEDEADYYCQSYDSSLSGVVFGGGTKLTVLGSRGGGGSGGGGSGGGGSLEMAQVQLVQSGAEVKKPGSSVKVSCKASGGTFSSYAISWVRQAPGQGLEWMGGIIPIFGTANYAQKFQGRVTITADESTSTAYMELSSLRSEDTAVYYCARGASFDRHDNWGQGTLVTVSSTSGQAGQHHHHHHGAYPYDVPDYAS
notes: screened as phage clone; entry is VL-linker-VH-His tag-HA tag
B2: ET200-044 (scFv)
scFv: QSVLTQPPSVSVSPGQTATIACSGHKLGDKYASWYQQKSGQSPVLIIYQDNKRPSGIPERFSGSNSGNTATLTISGTQALDEADYYCQAWDSSTYVAFGGGTKLTVLGSRGGGGSGGGGSGGGGSLEMAQVQLQESGPGLVKPSETLSLTCVVSGGSISSSNWWSWVRQPPGKGLEWIGEIYHSGSPNYNPSLKSRVTISVDKSKNQFSLKLSSVTAADTAVYYCARMTTHTFGYDAWGQGTLVTVSSTSGQAGQHHHHHHGAYPYDVPDYAS
notes: as for B1
B3: ET200-040 (scFv)
scFv: QSVLTQPPSVSGAPGQRVTISCTGSSSNIGAGYDVHWYQQLPGTAPKLLIYGNSNRPSGVPDRFSGSKSGTSASLAITGLQAEDEADYYCQSYDSSLSGYVFGTGTKVTVLGSRGGGGSGGGGSGGGGSLEMAQVQLVQSGAEVKKPGASVKVSCKVSGYTLTELSMHWVRQAPGKGLEWMGGFDPEDGETIYAQKFQGRVTMTEDTSTDTAYMELSSLRSEDTAVYYCARYSGVYYDWGQGTLVTVSSTSGQAGQHHHHHHGAYPYDVPDYAS
notes: as for B1
B4: ET200-041 (scFv)
scFv: NFMLTQPHSVSGSPGKTVTISCTGSSGSIADNFVQWYQQRPGGVPTTVIFNDDERPSGVPDRFSGSIDTSSNSASLTISGLKTEDEADYYCQSYDNNNRGVFGGGTKLTVLGSRGGGGSGGGGSGGGGSLEMAQVQLVQSGAEVKKPGSSVKVSCKASGGTFSSYAISWVRQAPGQGLEWMGWMNPNSGNTGYAQKFQGRVTMTRNTSISTAYMELSNLRSEDTAVYYCARYYSYGYDWGQGTLVTVSSTSGQAGQHHHHHHGAYPYDVPDYAS
notes: as for B1
B5: ET200-042 (scFv)
scFv: QSVVTQPPSVSGAPGQTVTISCTGGSSNIGTGYFVNWYQQVPGKAPKLLILGNNNRPSGVPDRLSGSTSGTSASLAITGLQAEDEGTYYCQSYDSSLSGYVFGTGTKVTVLGSRGGGGSGGGGSGGGGSLEMAQVQLQQSGPGLVKPSQTLSLTCGISGDSVSTNSVAWHWIRQSPSRGLEWLGRTYYRSKWSNDYGVSVKSRITIIPDTSKNQFSLQLNSVTPEDTAVYYCARSSSWYQIFDYWGQGTLVTVSSTSGQAGQHHHHHHGAYPYDVPDYAS
notes: as for B1
B6: ET200-003 (scFv)
scFv: QSVLTQPPSVSVSPGQTASISCSGNKLGTKYVYWYQKRPGQSPVLVMYEDNQRPSGIPERFSGSNSGNTATLTIRGTQTVDEADYYCQAWDSDTFVVFGGGTKVTVLGSRGGGGSGGGGSGGGGSLEMAEVQLVETGGGVVQPGRSLRLSCAASGFTFSSYGMHWVRQAPGKGLEWVAVISHDGSNKYYADSVKGRFTISRDNSKDTLYLQMNSLRGEDTAVYYCARSNQWSGYFSFDYWGQGTLVTVSSTSGQAGQHHHHHHGAYPYDVPDYAS
notes: as for B1

The first experiment addresses T1, Fc Receptor-like 5 (FcRL5), full length, overexpressed on 3T3 or Raji cells (human, UniProt Q96RD9 16-977).
T1 construct: also called 3T3-FcRL5
T1 sequence: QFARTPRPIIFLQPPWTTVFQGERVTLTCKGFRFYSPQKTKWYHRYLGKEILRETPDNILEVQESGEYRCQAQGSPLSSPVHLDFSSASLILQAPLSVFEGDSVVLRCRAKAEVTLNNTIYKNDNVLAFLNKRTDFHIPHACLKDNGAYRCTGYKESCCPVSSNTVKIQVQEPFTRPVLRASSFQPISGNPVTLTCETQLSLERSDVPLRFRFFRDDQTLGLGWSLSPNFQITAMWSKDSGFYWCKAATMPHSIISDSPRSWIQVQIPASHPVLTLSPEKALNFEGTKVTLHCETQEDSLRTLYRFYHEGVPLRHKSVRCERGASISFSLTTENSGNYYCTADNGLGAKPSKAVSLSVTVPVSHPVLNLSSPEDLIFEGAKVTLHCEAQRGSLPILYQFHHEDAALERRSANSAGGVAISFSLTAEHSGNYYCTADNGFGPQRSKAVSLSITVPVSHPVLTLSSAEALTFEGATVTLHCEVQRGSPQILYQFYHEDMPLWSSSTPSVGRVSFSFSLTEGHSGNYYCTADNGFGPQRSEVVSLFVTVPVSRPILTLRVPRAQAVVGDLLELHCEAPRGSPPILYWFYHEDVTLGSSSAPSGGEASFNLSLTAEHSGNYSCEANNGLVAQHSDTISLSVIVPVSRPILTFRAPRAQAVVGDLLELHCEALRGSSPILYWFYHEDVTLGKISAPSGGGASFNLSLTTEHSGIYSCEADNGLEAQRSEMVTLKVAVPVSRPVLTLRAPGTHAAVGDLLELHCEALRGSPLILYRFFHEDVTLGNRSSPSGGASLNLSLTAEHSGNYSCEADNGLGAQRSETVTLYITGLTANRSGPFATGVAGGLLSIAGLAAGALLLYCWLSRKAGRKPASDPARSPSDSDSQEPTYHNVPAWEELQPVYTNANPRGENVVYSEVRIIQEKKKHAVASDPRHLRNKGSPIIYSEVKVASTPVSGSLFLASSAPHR
Put plainly: phage clone screening on cells. The method, then:
Once selected, positive scFv clones are further tested for their binding to FcRL5 (e.g., human FcRL5) on live 3T3 cell surfaces by flow cytometry. Briefly, phage clones are incubated with 3T3 cells over-expressing FcRL5. The cells are washed and then incubated with a mouse anti-M13 coat protein mAb. Cells are washed again and labeled with a PE-horse anti-mouse Ig prior to flow cytometry.
Phage′ display against FcRL5 was performed to enrich for scFv phage clones that bind to FcRL5 specifically. Screening was carried out on FcRL5 overexpressing 3T3 cells or 3T3 cells expressing FcRL1, 2, 3, 4 or 6 as a negative control (FIG. 2).
Take B1: the binding result is on record as “binds”.
For B2, the binding result was “binds”.
Turning to B3, the binding result was “binds”.
Regarding B4, the binding result is on record as “binds”.
As for B5, the binding result was “binds”.
Consider B6, for which the binding result is “binds”.

The target in the next experiment is T2, FcRL1, overexpressed on 3T3 cells (UniProt Q96LA6 17-429, limits assumed).
T2 construct: whole, on cells
T2 sequence (looked up): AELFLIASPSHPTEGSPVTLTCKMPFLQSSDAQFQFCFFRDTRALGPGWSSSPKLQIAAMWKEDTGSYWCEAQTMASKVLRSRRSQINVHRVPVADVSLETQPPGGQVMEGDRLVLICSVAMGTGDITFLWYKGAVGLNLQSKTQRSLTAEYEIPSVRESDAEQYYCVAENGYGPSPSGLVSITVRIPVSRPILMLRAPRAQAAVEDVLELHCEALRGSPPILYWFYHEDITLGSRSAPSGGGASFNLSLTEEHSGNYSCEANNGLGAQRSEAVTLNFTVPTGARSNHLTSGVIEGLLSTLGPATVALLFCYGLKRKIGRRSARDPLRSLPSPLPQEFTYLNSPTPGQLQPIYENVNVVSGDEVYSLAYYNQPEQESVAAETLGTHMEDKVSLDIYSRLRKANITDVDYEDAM
In words: phage clone on 3T3-FcRL1 cells.
On to B1, for which the binding result is on record as “no binding”.
Same read-out and setting: for B2 the value was “no binding”.
The same measure, in the same setting: under B3 stands “no binding”; under B4, “no binding”.
Regarding B5, the binding result was “no binding”.
Turning to B6, the binding result was “no binding”.
